The values that follow come from patent US20210253725A1 (BIONTECH, published 2021).

Positions count from the first letter of the chain named. Numbers in names are those of the source.

T1: CD134 protein (His-tagged, Sino Biological Inc. 10481-H08H) (human, UniProt P43489 29-216)
T1 construct: bought protein coated on ELISA plates; also called OX40; TNFRSF4; not shown: His tag
T1 sequence (looked up): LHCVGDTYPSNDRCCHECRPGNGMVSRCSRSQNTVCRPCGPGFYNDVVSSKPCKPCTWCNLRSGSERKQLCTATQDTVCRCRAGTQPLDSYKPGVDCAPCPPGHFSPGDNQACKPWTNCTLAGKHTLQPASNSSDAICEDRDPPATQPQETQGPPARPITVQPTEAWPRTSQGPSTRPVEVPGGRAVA

T2: CD134 expressed on the cell surface of HT1080_OX40 cells (human, UniProt P43489 29-277)
T2 sequence (looked up): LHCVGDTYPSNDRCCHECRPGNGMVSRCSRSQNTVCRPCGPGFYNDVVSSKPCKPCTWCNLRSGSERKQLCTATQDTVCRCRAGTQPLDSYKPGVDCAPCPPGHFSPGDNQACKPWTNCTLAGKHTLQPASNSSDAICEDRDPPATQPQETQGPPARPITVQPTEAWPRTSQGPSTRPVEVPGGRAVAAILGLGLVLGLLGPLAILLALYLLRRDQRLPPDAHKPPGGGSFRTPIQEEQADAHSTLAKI

B1: P018.S.08.A.B03 (antibody, V domains shown)
VH: QSVEESGGRLVTPGTPLTLTCTVSGFSLSRYAITWVRQAPGKGLEWIGIISSSGTTYYASWAKGRFTISKTSTTVDLKITSPTTEDTAIYFCARAIAGDAGYVYAIDWLDLWGQGTLVTVSS
VL: DPVLTQTPSSASEPVGGTVTIKCQASEYISNYLSWYQQKPGQPPKLLIFGASTLESGVPSRFSGSGSGTEFTLTISGVQSADAATYYCQGGYFSSSTTYVAFGGGTEVVVR
notes: V regions on human Ig constant parts; also called AB134_19
B2: P018.S.11.A.D06 (antibody, V domains shown)
VH: QSLEESGGRLVKPGESLTLTCTVSEFSLSSNAMGWVRQAPGKGLEFIGLIDSGGDAYYATWAKGRFTISKTSSTTVDLKATSLTTEDTATYFCGRGYWFPRLGLWGQGTLVTVSS
VL: AAVLTQTPSPVSAAVGGTVSINCQSTKNVYLNNWLGWFQKKPGQPPKLLIYDASTLASGVPSRFKGSGSGTEFTLTISDLESDDAATYYCAGAYDDNSDHTFGGGTEVVVK
notes: V regions on human Ig constant parts; also called AB134_32
B3: P018.S.12.A.A03 (antibody, V domains shown)
VH: LEQSAGGAEGGLVKPGGSLELCCKASGFSLNNNYWICWVRQAPGKGLEWIGCIYVGVVSLTYSASWVNGRFTLSKDIDQSTGCLQLNSLTAADTAMYYCARSLYSGYAGYGDGYYGMDLWGPGTLVTVSS
VL: GVVMTQTPASVSDPVGGTVTIKCQASQSIGSDLAWYQQKPGQPPKLLIYAASNLASGVSSRFSGIRSGTEFTLTISDLESADAATYYCQCTDYVDSHDTFGGGTEVVVK
notes: V regions on human Ig constant parts; also called AB134_52
B4: P018.S.11.A.H06 (antibody, V domains shown)
VH: QSLEESGGRLVTPGTPLTLTCTVSGFSLSTYAMIWVRQAPGEGPEWIGLIAGGGNTWYASWAKGRFTISKTSTTVDLKITSPTTEDTATYFCARADYLGYGNNFWGQGTLVTVSS
VL: AAVLTQTPSPVSAAVGGTVTINCQASQSVYNNNYLAWYQQKPGQPPKLLIYWASNLASGVPSRFSGSGSGTQFSLTISGVQSDDAATYYCLGVYDDDADNGFGGGTEVVVK
notes: V regions on human Ig constant parts; also called AB134_49
B5: P018.S.12.A.F02 (antibody, V domains shown)
VH: QSLEESGGRLVTPGTPLTLTCTASGFSLIKSHINWVRQAPGKGLEWVGGIAYDDNTYYANWAKGRFTISKTSTTVDLRITSPTTADTATYFCAREDSSGWGSFNLWGQGTLVTVSS
VL: AQVLTQTPSSVSAAVGGTVTISCQSSQSVYATNQLSWFQQKSGQPPKRLIYSASTLASGVSSRFKGSGSGTQFTLTISGVQSDDAATYYCQGAYDCSGGDCRAFGGGTEVVVK
notes: V regions on human Ig constant parts; also called AB134_78
B6: P018.S.04.A.C06 (antibody, V domains shown)
VH: QSVEESGGRLVTPGTPQTLTCTVSGFSLSSYAMSWVRQAPGKGLEWIGIISSSGSTYYASWAKGRFTISKTSTTVDLKITSPTTEDTATYFCARDAYPSYSPFGYYFTLWGQGTLVTVSS
VL: AIKMTQTPASVSAAVGGTVSINCQASEDIYNYLAWYQQKPGQPPKLLIYDASDLASGVPSRFKGSGSGKQFTLTISGVQSDDAATYYCQHGYFTYSGENAFGGGTEVVVK
notes: V regions on human Ig constant parts; also called AB134_8
B7: P018.S.11.A.A04 (antibody, V domains shown)
VH: QSVEESGGRLVTPGTPLTLTCTVSGFSLSSYAMGWVRQAPGKGLEYIGVISTSANTYYATWAKGRFTISKTSTTVDLRITSPTTEDTATYFCARVVGLYDSYGDVDATYDAFDPWGPGTLVTVSS
VL: AQVLTQTASPVSAAVGDTVTINCQSSQSVYNNNLLSWYQQKPGQPPKLLVYDASNLASGVPHRFSGSGSGTQFTLTISGVQSDDAATYYCLGGYDDDADIYAFGGGTEVVVK
notes: V regions on human Ig constant parts; also called AB134_21
B8: P018.S.11.A.F03 (antibody, V domains shown)
VH: QEQLVESGGGLVQPEGSLTLTCKASGFDFNNNAMCWVRQAPGKGLEWIACIYDGSSGSTYYASWAKGRFTISKTSSSTVTLQMTSLTAADTATYFCARAYAAYTVYDYAFNLWGPGTLVTVSS
VL: DVVMTQTPASVSEPVGGTVTIKCQASQSIGSDLAWYQQKPGQPPKLLIYYTTNLETGVSSRFKGSGSGTQFTLTISDLESADAATYYCQYADRSSYSFGGGTEVVVK
notes: V regions on human Ig constant parts; also called AB134_39
B9: P018.S.12.A.E03 (antibody, V domains shown)
VH: QSVEESGGRLVTPGTPLTLTCTVAGIDLNICGMSWVRQAPGKGLEWIGIIYPSDYTYYATWAKGRFTISKTSTTVDLKITSPTTEDTATYFCARGLGHAWSHFDLWGQGTLVTVSS
VL: AFELTQTPASVSEPVGGTVTIKCQASQSIGSDLAWYQQKPGQPPKLLIYSVSNLPSGVSSRFKGSRSGTEYTLTISDLESADAATYYCQSYYGTITTGYIAFGGGTEVVVK
notes: V regions on human Ig constant parts; also called AB134_74
B10: P018.S.12.A.B02 (antibody, V domains shown)
VH: QSLEESGGRLVTPGTPLTLTCTVSGIDLSKYTMTWVRQAPGKGLEWIGLISFGGRGGTWYANWAKGRFTISKTSTTVDLRIASPTTEDTATYFCARARYSGTNYDYFNLWGQGTLVTVSS
VL: AYDMTQTPASVEVAVGGTVTIKCQASQSISNWLAWYQQKPGQRPKLLIYGASNLESGVPSRFKGSGSGTDFTLTISDLESADAATYYCQQGYSSDGVTNAFGGGTEVVVE
notes: V regions on human Ig constant parts; also called AB134_57
B11: P018.S.12.A.E01 (antibody, V domains shown)
VH: QSVEESGGRLVTPGGSLTLTCTVSGIDLSSADMSWVRQAPGEGLEYIGWINNVGSAYYASWAKGRFSISKTSSTTVDLKVTSLTTEDTATYFCVRGYWLDLWGQGTLVTVSS
VL: AAVLTQTPSPVSAAVGGTVSISCQSSVNVYNNNYLAWFQQKPGQPPKLLIYAASTLPSGVSSRFSGNGSGTEFTLTISGVQSDDAATYYCVGYYSSTDDNGFGGGTEVVVK
notes: V regions on human Ig constant parts; also called AB134_72
B12: P018.S.12.A.F04 (antibody, V domains shown)
VH: QQQLEESGGGLVKPGGTLTLTCTASGIDFSSYWMWWVRQPPGKGLEWVACIYNGDGSTYYASWAKGRFTISKTSSTTVTLQMTSLTAADTATYFCARDFHLWGPGTLVTVSS
VL: AQVLTQTASPVSAAVGSTVTINCQASQNIYKNNYLSWYQQKPGQPPKGLIYSASTLDSGVPLRFSGSGSGTKFTLTISDVQSDDAATYYCLGSVACSGPDCIVFGGGTEVVVK
notes: V regions on human Ig constant parts; also called AB134_80
B13: P018.S.11.A.H05 (antibody, V domains shown)
VH: QQRLVESGGGLVKPGASLTLTCTASGFSFSSGYDMCWVRQAPGKGLEWVGCIDTATDTIYYASWAPGRFTISKTSSTMVTLQMTSLTAADTATYFCARSVGGVDYAIDLWGPGTLVTVSS
VL: AYDMTQTPVSVEVPVGGTVTIKCQASQNIGSRLVWYQQKPGQSPKFLIYYASNLASGVSSRFKGSGSGTQFTLTISDVQSDNAATYYCQQTYSYSDVDDTFGGGTEVVVK
notes: V regions on human Ig constant parts; also called AB134_48
B14: P018.S.12.A.D03 (antibody, V domains shown)
VH: B13 VH with Q2E, A55G, D57G, K73E, V103Y
VL: B13 VL with V9A
notes: V regions on human Ig constant parts; also called AB134_68
B15: P018.S.11.A.A03 (antibody, V domains shown)
VH: QSLEESGGDLVKPGASLTLPCTASGFTLSGYWMCWVRQAPGKGLEWIGCIYNGDGSTYYASWAKGRFTISKTSSTTVTLQMTSLTAADTATYFCARDSNGWGAYGLWGPGTLVTVSS
VL: AIEMTQTPSSVSAAVGGTVTIDCQASQSIGSYLSWYQQKPGQPPKLLIYDASDLASGVPSRFSGSGSGTEFTLTISGVQSDDAATYYCQGGYYSSATEIAFGGGTEVVVK
notes: V regions on human Ig constant parts; also called AB134_20
Also: test concentration or dose not given here.

The target in the first experiment is T1, CD134 protein (His-tagged, Sino …). The experiment in a line: ELISA, coated His-tagged CD134. Background: An ELISA detects its analyte on a solid surface through an enzyme-linked reagent.
B1: the “ELISA [abs. corr.]” value worked out at 2.66 abs. corr.
As to B2, the “ELISA [abs. corr.]” value came out at 0.744 abs. corr.
On to B3, for which the “ELISA [abs. corr.]” value came to 1.44 abs. corr.
With B4, the “ELISA [abs. corr.]” value was found to be 2.52 abs. corr.
Still for that read-out and setting: with B5 the figure was 2.07 abs. corr.
In the case of B6, the “ELISA [abs. corr.]” value stood at 2.5 abs. corr.
As for B7, the “ELISA [abs. corr.]” value was 2.1 abs. corr.
Still for that read-out and setting: with B8 the figure was 1.85 abs. corr.
Still for that read-out and setting: then B9, with 2.04 abs. corr; and B10, with 2.21 abs. corr.
As for B11, the “ELISA [abs. corr.]” value turned out to be 2.55 abs. corr.
As for B12, the “ELISA [abs. corr.]” value is 2.11 abs. corr.
On to B13, for which the “ELISA [abs. corr.]” value is 1.69 abs. corr.
In the case of B14, the “ELISA [abs. corr.]” value is 1.34 abs. corr.
For the molecule B15, the “ELISA [abs. corr.]” value stood at 1.93 abs. corr.

The next experiment has as its target T2, CD134 expressed on the cell surface of …. Kind of experiment: cell-based or functional assay.
Regarding B1, the “Functional assay Cross-linked by F(ab′)2 fragment IL-8” value (shortened to “Functional assay Cross-linked”) amounted to 1.94 abs. corr and the “Functional assay IL-8” value came out at 0.709 abs. corr.
Take B2: the “Functional assay Cross-linked” value came out at 1.97 abs. corr and the “Functional assay IL-8” value is 0.019 abs. corr.
In the case of B3, the “Functional assay Cross-linked” value was found to be 1.95 abs. corr and the “Functional assay IL-8” value is 0.393 abs. corr.
In the same order, the values of B4 are 1.95 abs. corr and 0.567 abs. corr.
In the same order, the values of B5 are 1.99 abs. corr and 0.185 abs. corr.
In the case of B6, the “Functional assay Cross-linked” value is 2 abs. corr and the “Functional assay IL-8” value was found to be 0.538 abs. corr.
Consider B7, for which the “Functional assay Cross-linked” value was 1.99 abs. corr and the “Functional assay IL-8” value came to 0.533 abs. corr.
Consider B8, for which the “Functional assay Cross-linked” value amounted to 1.94 abs. corr and the “Functional assay IL-8” value stood at 0.38 abs. corr.
In the same order, the values of B9 are 2 abs. corr and 0.461 abs. corr.
With B10, the “Functional assay Cross-linked” value is 1.97 abs. corr and the “Functional assay IL-8” value is -0.167 abs. corr.
Regarding B11, the “Functional assay Cross-linked” value was found to be 2.04 abs. corr and the “Functional assay IL-8” value worked out at 0.439 abs. corr.
Regarding B12, the “Functional assay Cross-linked” value stood at 1.95 abs. corr and the “Functional assay IL-8” value worked out at 0.289 abs. corr.
As for B13, the “Functional assay Cross-linked” value is 2.01 abs. corr and the “Functional assay IL-8” value was found to be 1.21 abs. corr.
Consider B14, for which the “Functional assay Cross-linked” value worked out at 1.83 abs. corr and the “Functional assay IL-8” value was found to be 0.707 abs. corr.
For the molecule B15, the “Functional assay Cross-linked” value amounted to 2.01 abs. corr and the “Functional assay IL-8” value was 1.38 abs. corr.

A further experiment shares this target. The experiment in a line: HT1080_OX40 cells, imaging.
On to B1, for which the “Cellular binding assay [RFU]” value is 477 RFU.
With B2, the “Cellular binding assay [RFU]” value is 130 RFU.
Consider B3, for which the “Cellular binding assay [RFU]” value worked out at 493 RFU.
With B4, the “Cellular binding assay [RFU]” value is 498 RFU.
As for B5, the “Cellular binding assay [RFU]” value was 549 RFU.
B6: the “Cellular binding assay [RFU]” value came to 458 RFU.
On the same count and under the same terms, then B7, with 582 RFU.
As to B8, the “Cellular binding assay [RFU]” value was 522 RFU.
With B9, the “Cellular binding assay [RFU]” value came out at 482 RFU.
The same measure, in the same setting: then B10, with 560 RFU.
Consider B11, for which the “Cellular binding assay [RFU]” value was determined as 463 RFU.
In the case of B12, the “Cellular binding assay [RFU]” value was 551 RFU.
The same measure, in the same setting: with B13 the figure was 478 RFU.
B14: the “Cellular binding assay [RFU]” value came out at 559 RFU.
B15: the “Cellular binding assay [RFU]” value was determined as 459 RFU.
